Several values for one entry are separate records, joined by “and”; a condition that tells them apart may be missing. Equal values may be shown once.
B5: human OPGbp [143-317] (ligand, UniProt O14788 143-317, looked up)
chain: EKAMVDGSWLDLAKRSKLEAQPFAHLTINATDIPSGSHKVSLSSWYHDRGWAKISNMTFSNGKLIVNQDGFYYLYANICFRHHETSGDLATEYLQLMVYVTKTSIKIPSSHTLMKGGSTKYWSGNSEFHFYSINVGGFFKLRSGEEISIEVSNPSLLDPDQDATYFGAFKVRDID
notes: also called OPGL

Assays:
human OPGbp [143-317] [1] = target: B5; assay: SPR (BIAcore), immobilized OPGbp [143-317]
human OPGbp [143-317] [2] = target: B5; assay: FRET competition, inhibition of OPGbp-Eu binding to sODAR-Fc, in PBS
Method: (§1) A 1 hour preincubation with OPGbp was added for increased sensitivity. A soluble extracellular domain of human ODAR was constructed as a fusion polypeptide with an amino terminal FLAG tag and a carboxy terminal human Fc region. The Fc region is recognized and bound by a polyclonal goat anti-human Fc specific allophycocyanin (APC) which is detected by […] at 665 nm. […] Binding of OPGbp to ODAR in this assay triggers a fluorescent energy transfer and is highly sensitive for competition curves. A decrease in the A665/A620 absorbance ratio indicates inhibition of OPGbp binding to ODAR.
(§2) The Fab “Y” clone 1B4 was from the predominant 9 member pattern from one 96-well plate (all with same amino acid sequence) from the optimized plated OPGbp screen using a 1 μM OPGbp elution for 90 min. […] Similar IC50's were obtained with the duplicate preparations “A” and “B”.

human OPGbp [143-317] [3] = target: B5; assay: FRET competition, inhibition of OPGbp-Eu binding to sODAR-Fc
Method: as §1, §2

human OPGbp [143-317] [4] = target: B5; assay: FRET competition, inhibition of OPGbp-Eu binding to sODAR-Fc, in TBS
Method: as §1, §2

human OPGbp [143-317] [5] = target: B5; assay: SPR (BIAcore), OPGbp on CM5 chip
Method: (§3) The binding constant (Kd), on rate constant (ka) and off rate constant (kd) for Fabs “AT” and “Y” and “AT” antibody were determined by surface plasmon resonance techniques (BIAcore, Pharmacia, Piscataway, N.J.) and the results are shown in Table II. Fabs were prepared as described in Example 4 and “AT” antibody prepared as described in Example 7. OPGbp was immobilized on a CM5-chip by standard amine coupling. The Kd and rate constants were determined by BIAEVALUATION 3.0 software (Pharmacia).

human OPGbp [143-317] [6] = target: B5; assay: cell-based or functional assay
human OPGbp [143-317] [7] = target: B5; assay: SPR (BIAcore), OPGbp on CM5 chip (147 RU)
Method: as §3

human OPGbp [143-317] [8] = target: B5; assay: SPR (BIAcore), immobilized OPGbp [143-317]; remark: listed apart in the source
human OPGbp [143-317] [9] = target: B5; assay: SPR (BIAcore), OPGbp on CM5 chip (80 RU)
Method: as §3

murine OPGbp[158-316] = target: T1, murine OPGbp[158-316] (murine, UniProt O35235 158-316); assay: EIA on plates coated with murine OPGbp[158-316]
T1 sequence: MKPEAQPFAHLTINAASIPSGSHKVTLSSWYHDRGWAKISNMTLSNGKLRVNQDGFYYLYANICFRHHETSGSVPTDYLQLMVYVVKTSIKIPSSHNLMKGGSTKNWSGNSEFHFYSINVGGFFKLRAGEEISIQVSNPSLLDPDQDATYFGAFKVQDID
Method: After overnight incubation, the protein solutions were removed from the plate and 200 μl of 5% Chicken Serum (Gibco/BRL Cat#16110-082) in PBST (PBS plus 0.05% Tween 20) was added to each well of the plate and plates were incubated at room temperature (RT) for 90 min with agitation. After incubation and blocking, plates were washed 4 times with 1×K-P wash solution in dH₂O (Cat#50-63-00, Kirkegaard & Perry Laboratories) and dried. […] Plates were incubated for three hours at room temperature with agitation, washed four times with 1× K-P wash solution and dried. Goat anti-human IgG (Fc) (Jackson ImmunoResearch, Cat#109-036-098) was diluted 1:5000 in 5% Chicken Serum in PBST and 100 μl was added to each well. […] 100 μl of undiluted ABTS substrate (Kirkegaard & Perry; Cat#50-66-00) was added to each well and the dish was incubated at room temperature until sufficient blue-green color developed. Color development was stopped by addition of 100 μl 1% SDS. Quantitation of color development was performed using a microtiter plate reader with detection at 405 nm.

human OPGbp [143-317] [10] = target: B5; assay: SPR (BIAcore), OPGbp on CM5 chip (47 RU)
Method: as §3

human OPGbp [143-317] [11] = target: B5; assay: phage ELISA on plated OPGbp [143-317]
[12] = target: T2, soluble ODAR-Fc fusion (FLAG-human ODAR extracellular domain-human Fc) (human, UniProt Q9Y6Q6 30-212); assay: FRET competition, unlabelled OPGbp against OPGbp-Eu on sODAR-Fc, in TBS (positive control)
T2 construct: extracellular domain; also called sODAR-Fc; not shown: amino terminal FLAG tag; carboxy terminal human Fc region
T2 sequence (looked up): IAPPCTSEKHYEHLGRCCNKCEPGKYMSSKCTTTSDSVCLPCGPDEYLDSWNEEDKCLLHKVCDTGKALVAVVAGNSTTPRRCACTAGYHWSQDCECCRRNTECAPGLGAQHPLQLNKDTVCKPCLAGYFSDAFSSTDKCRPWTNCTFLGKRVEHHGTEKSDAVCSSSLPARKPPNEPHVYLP
Method: as §1, §2

[13] = target: T2, soluble ODAR-Fc fusion (FLAG-human ODAR …); assay: FRET competition, unlabelled OPGbp against OPGbp-Eu on sODAR-Fc, in PBS (positive control)
Method: as §1, §2

B1: Fab “AT” (Fab, V domains shown)
VH: QVQLVQSGAEVRKPGASVKVSCKASGYDFSNYAIHWVRQAPGQRLEWMGWINAGNGNTKFSQKFQGRITVTRDTAASTAYMELRSLRSEDTAVYYCARDSSNMVRGIIIAYYFDYWGQGTLVTVSS
VL: EIVMTQSPSSLSASVGDRVTITCRASQSISRYLNWYQLKPGKAPRLLIYGASSLQSGVPSRFSGSGSGAEFTLTISSLQPEDIATYYCQHTRAFGQGTKVEIKR
notes: Soluble Fab from E. coli periplasm purified on Talon resin; also called soluble Fab “AT”; Fab pattern “AT”
- koff (human OPGbp [143-317] [1]): 0.284 s⁻¹
- IC50 (human OPGbp [143-317] [2]): 440 nM
- IC50 (human OPGbp [143-317] [3]): 550 nM
- IC50 (human OPGbp [143-317] [4]): 354 nM
- Kd (human OPGbp [143-317] [5]): 140 nM
- koff (human OPGbp [143-317] [5]): 0.31 s⁻¹
- kon (human OPGbp [143-317] [5]): 2.2e+06 M⁻¹ s⁻¹
- RAW cell assay (TRAP, OD405), IC50 (human OPGbp [143-317] [6]): 15 µg/ml and 300 nM
- murine bone marrow assay, TRAP activity in solution (pNPP), 50% decrease (IC50) (human OPGbp [143-317] [6]): 57.8 nM

B2: Fab “Y” (Fab, V domains shown)
VH: EVQLVQSGAEVRKPGASVKVSCKASGYDFSNYAIHWVRQAPGQRLEWMGWINAGNGNTKFSQKFQGRITVTRDTAASTAYMELRSLRSEDTAVYYCARDSSNMVRGIIIAYYFDYWGQGTLVTVSS
VL: EIVLTQSPATLSFSPGERATLSCRASQSVGSYLAWYQQRPGQAPRPLIYDATNRATGIPTRFSGSGSGTDFTLTISSLEPEDFATYYCQHRRTFGRGTKLEIKR
notes: also called soluble Fab “Y”; Fab pattern “Y”
- IC50 (human OPGbp [143-317] [3]): 6000 nM
- IC50 (human OPGbp [143-317] [4]): 4100 nM
- Kd (human OPGbp [143-317] [5]): 594 nM
- koff (human OPGbp [143-317] [5]): 0.00591 s⁻¹
- kon (human OPGbp [143-317] [5]): 9440 M⁻¹ s⁻¹

B3: “AT” antibody (full-length human IgG1) (antibody, V domains shown)
VH: QVQLVQSGAEVRKPGASVKVSCKASGYDFSNYAIHWVRQAPGQRLEWMGWINAGNGNTKFSQKFQGRITVTRDTAASTAYMELRSLRSEDTAVYYCARDSSNMVRGIIIAYYFDYWGQGTLVTVSS
VL: EIVMTQSPSSLSASVGDRVTITCRASQSISRYLNWYQLKPGKAPRLLIYGASSLQSGVPSRFSGSGSGAEFTLTISSLQPEDIATYYCQHTRAFGQGTKVEIKR
notes: Expressed in CHO cells; also called “AT” Ab; not shown: human IgG1 CH1, hinge, CH2 and CH3
- Kd (human OPGbp [143-317] [7]): 0.42 nM
- koff (human OPGbp [143-317] [7]): 0.0024 s⁻¹
- kon (human OPGbp [143-317] [7]): 5.7e+06 M⁻¹ s⁻¹
- Kd (human OPGbp [143-317] [8]): 1.18 nM
- koff (human OPGbp [143-317] [8]): 0.002 s⁻¹
- kon (human OPGbp [143-317] [8]): 1.7e+06 M⁻¹ s⁻¹
- Kd (human OPGbp [143-317] [9]): 0.33 nM
- koff (human OPGbp [143-317] [9]): 0.0027 s⁻¹
- kon (human OPGbp [143-317] [9]): 8.1e+06 M⁻¹ s⁻¹
- RAW cell assay, IC50, preparation “AT”405 (human OPGbp [143-317] [6]): 3 ug/ml and 20.1 nM
- RAW cell assay, IC50, preparation “AT”406 (human OPGbp [143-317] [6]): 60.3 nM and 9 ug/ml
- RAW cell assay, IC50, preparation “AT”407 (human OPGbp [143-317] [6]): 21.4 nM and 3.2 ug/ml
- bone marrow assay, inhibition of TRAP formation, IC50, preparation “AT”406 (human OPGbp [143-317] [6]): 2.35 µg/ml and 14.4 nM
- murine bone marrow assay, IC50, preparation “AT”405 (human OPGbp [143-317] [6]): 2.15 ug/ml and 14.4 nM
- murine bone marrow assay, IC50, preparation “AT”407 (human OPGbp [143-317] [6]): 1.85 ug/ml and 12.5 nM
- binding result (murine OPGbp[158-316]): no binding (tested: 2 ug/ml down to 1.953 ng/ml)
- Kd (human OPGbp [143-317] [10]): 0.43 nM
- koff (human OPGbp [143-317] [10]): 0.0031 s⁻¹
- kon (human OPGbp [143-317] [10]): 7.3e+06 M⁻¹ s⁻¹

B4: Fab “S” (Fab, V domains shown)
VH: EVQLLESGGGLVQPGRSLRLSCAASGFTFDDYAMHWVRQAPGKGLEWVSGISWNSGRIGYADSVKGRFTISRDNAKNSLYLQMNSLRPEDTAFYYCAKGGSTSARYSSGWYYWGQGTLVTVSS
VL: QSVLTQPPSVSVSPGQTATITCSGDALPKQYVYWYRQKPGQAPLLVIYEDSERPSGIPERFSGSSSGTEVTLSISGVQAEDEADYYCQSTDSSGTYVVFGGGTKLTVLS
notes: also called Fab pattern “S”
- binding result (human OPGbp [143-317] [11]): binds

Binder: B5
- IC50 [12]: 0.89 nM
- IC50 [13]: 0.93 nM

Source: patent US20140147444A1 (published 2014)
